Experimental findings from the DeepSol protein solubility set are described below.

This data set can be described thus: soluble on expression in E. coli; label from the status in PepcDB or PDB records.
For “MPKLSIIIPAYNNAHLLPETLDSIFSQDCEPFELIVVDDGSTDNTRDVVEGYGRGIVYLWQENSGGCSKPRNVGIRHATGEYIAMFDSDDIMKPGKVRSQMDFLDRNPDVDFVFTDFCDFRGAEVLASHITTCPIFNSLPKQKVGEDAYVISSTAAYETLLVENFIGGSAMMFRKSLFNEAGPFDETLEVSEDIDFTLRVARTHALGFINRIGHHRRLHDGNMTSKAEKILTRSLRVFGGHLSAPKSSKAQQRLIDKVAGLHGALAYHYRENARYGEALAEYRASLSLRPACLGTYKAMAKLAVMALTSGGKLEHHHHHH”, the “soluble on expression in E. coli” value is on record as “soluble”.
“MSQPLLAVNGLMMRFGGLLAVNNVSLELREREIVSLIGPNGAGKTTVFNCLTGFYKPTGGTITLRERHLEGLPGQQIARMGVVRTFQHVRLFREMTVIENLLVAQHQQLKTGLFSGLLKTPAFRRAQSEALDRAATWLERIGLLEHANRQASNLAYGDQRRLEIARCMVTQPEILMLDEPAAGLNPKETKELDELIAELRNHHNTTILLIEHDMKLVMGISDRIYVVNQGTPLANGTPEEIRNNPDVIRAYLGEA”: the “soluble on expression in E. coli” value was “soluble”.
On to “MGSDKIHHHHHHMVGNYRGMGRFARQLVEPVGASVLGLAPSGVHADEWPCVSQGHGFFPWWEQVELPRLCREQRLDYLLCPYNTGPLRSTGNTRVVAVIHDLIYMEPWHVLPPARSVYQTVGRVYRRHVVPRLVRRADVVLTVSRFTQRELVKKFELREGDVRVVPCTISDDWFEPPVSRTARQPYLFTVAGEVPSKNVGRLLQAFAIARPALGDDARLRIAGIKAEHHAHFLGLADSLGLTNAVELLGYVSREELREQYRQARAFVFASLFEGFGIPLLEAMASGTPVACSNTTSMPEIAGNCALQFDPRSVEDMAEQIRAIWDDSARFEVALGDGVNRARTYSESAVRPSIEDFWAGLA”, for which the “soluble on expression in E. coli” value was “not soluble”.
As for “DVQITQSPSYLAASPGETITLNCRASKSISKYLAWYQEKPGKTNKLLIYSGSTLQSGIPSRFSGSGSGTDFTLTISSLEPEDFAMYFCQQHNEYPYTFGGGTKLEIKRTVAAPSVFIFPPSDEQLKSGTASVVCLLNNFYPREAKVQWKVDNALQSGNSQESVTEQDSKDSTYSLSSTLTLSKADYEKHKVYACEVTHQGLSSPVTKSFNRGEC”, the “soluble on expression in E. coli” value is “soluble”.
With “SSLAISVANDDAGIFQPSLNALYGHPAADRGDYTAGLFLGYSHDLTDASQLSFHIAQDIYSPSGANKRKPEAVKGDRAFSAFLHTGLEWNSLATNWLRYRLGTDIGVIGPDAGGQEVQNRAHRIIGAEKYPAWQDQIENRYGYTAKGMVSLTPAIDILGVNVGFYPEVSAVGGNLFQYLGYGATVALGNDKTFNSDNGFGLLSRRGLIHTQKEGLIYKVFAGVERREVDKNYTLQGKTLQTKMETVDINKTVDEYRVGATIGYSPVAFSLSLNKVTSEFRTGDDYSYINGDITFFF” the entry was “soluble”; with “MHHHHHHSSGRENLYFQGMTVREKTRLEKFRQLLSSQNTDLDELRKCSWPGVPREVRPITWRLLSGYLPANTERRKLTLQRKREEYFGFIEQYYDSRNEEHHQDTYRQIHIDIPRTNPLIPLFQQPLVQEIFERILFIWAIRHPASGYVQGINDLVTPFFVVFLSEYVEEDVENFDVTNLSQDMLRSIEADSFWCMSKLLDGIQDNYTFAQPGIQKKVKALEELVSRIDEQVHNHFRRYEVEYLQFAFRWMNNLLMRELPLRCTIRLWDTYQSEPEGFSHFHLYVCAAFLIKWRKEILDEEDFQGLLMLLQNLPTIHWGNEEIGLLLAEAYRLKYMFADAPNHYRR”, “soluble”; with “SNAMTIRFADKADCAAITEIYNHAVLHTAAIWNDRTVDTDNRLAWYEARQLLGYPVLVSEENGVVTGYASFGDWRSFDGFRYTVEHSVYVHPAHQGKGLGRKLLSRLIDEARRCGKHVMVAGIESQNAASIRLHHSLGFTVTAQMPQVGVKFGRWLDLTFMQLQLDEHAAPDAC”, “soluble”.
Regarding “MGSDKIHHHHHHMKRSGKVYIIGAGPGEEELITLKAIRKMKECTAVLYDRLVGQGILKYLNEKCEIYYCGKEPGCHYKTQDEINEMIIKLAKEGHIVGRIKGGDPYIFGRGGEEGLSLLKENIEFEVISGVTSPVAVLNYAGIPVTHRGIARSFHVFTAKTANDDSINFSAAAKIDGTLIFLMGYRQLNDITRKLIENGMDSKMPCAVVMRGTTSLQKKVIGNLSDIKEKCDNANMTSPCIIVVGKVVGFNQQLNWYEKKPLFGRNICITRSKNQSKTMREELLDLGAEVTEVHSIEIENTASNLEEYINKISEYDYIILTSVNAVEVLFDYLASKDYDVRKVRAKFAVIGNATKEALKKRGIVPEIVSRKHNGEGLFDEIRGYLKKDDKIFIPRSENSRKYIKEQLVSLGLSVDECFIYRTVPGKLYDKAAFENADTIVFTSPSTVKNMIALFGEKNIKKKSIIAIGPITGRELGKINAEYSTCSECSVDAIIRECLNSDK”, the “soluble on expression in E. coli” value was “not soluble”.
“MGSDKIHHHHHHMNKVLNKESAPAYRLTPEWELYTSVVTTSLNNSFYEQEEERIERVRTLIGKCNPLFVAQLAAYARETMNLRSIPLVMAVELARIHQGDNLVKRVTARTVRRADEITELLACYQQANRRTGTKKLNRLSKQLQAGLQDAFNTFDAYQFAKYNRSAEVCLKDALFLVHPKAKDERQQEIFNGIVNDNLPVPYTWETELSALGQRTFATEEERRKAFRAKWEELIDSGKLGYMALLRNLRNILEAEVSADHILTVGKRLSSEKAVENSRQLPFRFLAAYRELSKTPSLYATMLMTALERAVQVSARNITGFDESTRVLIACDVSGSMQCPVSAKSKVLYYDIGLLLGMLLKSRCKQVMTGIFGDRWKIINLPDTGILSNVDAFYKREGEVGYSTNGYLVIKDLIDRKAQMDKIMMFTDCQLWNSHSDLQITDLWRKYKKICPAAKLYLFDLSGYGNTPLDITRDDVFLIAGWSDKIFDILSAIDKGNDALQEIKKIVV”: the “soluble on expression in E. coli” value is on record as “not soluble”.
Take “VRDHLPPGLPPDPFADDPCDPSAALEAVEPGQPLDQQERMAVEADLADLAVYEALLAHKGIRGLVVCCDECQQDHYHDWDMLRSNLLQLLIDGTVRPHEPAYDPEPDSYVTWDYCRGYADASLNEAAPDADRFRRR”: the “soluble on expression in E. coli” value is listed as “soluble”.
Consider “MKQHQSADNSQGQLYIVPTPIGNLADITQRALEVLQAVDLIAAEDTRHTGLLLQHFGINARLFALHDHNEQQKAETLLAKLQEGQNIALVSDAGTPLINDPGYHLVRTCREAGIRVVPLPGPCAAITALSAAGLPSDRFCYEGFLPAKSKGRRDALKAIEAEPRTLIFYESTHRLLDSLEDIVAVLGESRYVVLARELTKTWETIHGAPVGELLAWVKEDENRRKGEMVLIVEGHKAQEEDLPADALRTLALLQAELPLKKAAALAAEIHGVKKNALYKYALEQQG”, for which the “soluble on expression in E. coli” value is “soluble”.
For the sequence “MIERLFRLIKPGTRQQMVCFHHAGGSAEYFLPWKTDLPPDTALYAIQLPGHGGRINESLLHNLHQMADVIAQSYVYLPVRDTFFFGHSMGAALAFEVALRLQKAGRGITTLYVSGRLPPHKNTNTDFYRQSDVSILNKITQLGGSTLDYQQPELKDLLLPIFRADFTAIETYQRQCTELLNCSVMACVGEQDTEVSVRQMSEWCQVTKGAFRLQVFPGGHFYLNHAQKRLLAFINQSVAAQQSSKECKEYHDEI”, the “soluble on expression in E. coli” value was “not soluble”.
As to “MLRFYAMKQITEPGTYEIRGEVAEGDFSWDATNFAGFFYDVNDDVSTESLTVTGLNGGNVIPEGGLVYETTIQMVDYEYSKPSVGWDQFPVLGFFAEEYIPINADKADKLAKLVLDSDDKYTIRTGEQLDLGEGYAIEAKQVDVDGEKVWLEFTKDGEFVDDEIISVVSGSDNTWEVELDDIQDEDDVVVLRVHVNQVFQGAVDSIAQIEGIWLIDYANAMKIESDDEFGDLDNVKINGATLTITNEDTFTLTRDDEVEIGQGMFFKVADTAASDLRYYPFVEKTIDGEVVLEHHHHHH”, the “soluble on expression in E. coli” value is listed as “soluble”.
Turning to “MDVAALVSGGVDSSVVVHRLCEEGYKPAIFYIRIGMEDKDGYIDCPAEEDIELTTLIARRYGCPFEVVDLHKEYWERVVSYTVETVRRGLTPNPDMMCNKLIKFGCFEERWGYQFDRIATGHYATTDLLNGKTYLSTAKDPVKDQTDFLAQINFAQISKLMFPIGHLLKSEVRAIANAAGLPSAKRKDSQGICFLGKIDYNDFIERYLGKKEGRIIELETGKVIGRHQGYWFHTIGQRKGLGLSGGPWFVVKKDIKRNIILVSRGYDPDAQYGKTIEMETFDFITEDAYEAGYWNREDATPVTFKIRHTPEFTRGLLYKGEKGYRLESEERIQGIAPGQYCVIYDEDHHLCYGSGMITKGR”, the “soluble on expression in E. coli” value is given as “not soluble”.
With “MGSDKIHHHHHHMWTSKQQQALDHLAATPSLLVVSDFDGTLAGFSHDAMQVPVNHVAMAALQQLTSLPSTRVALLSGRDVQGLIQVSGAAAPMIVAGSHGAESTEGGLVLNEDQQAALSAVTAALEEIATSVPGAFVEHKPYHRVLHVIRVADQQRARAALDRALALEIPGAKIAEGKWIAEASVVDFTKGTWIKAAQEQYRPSVTLFLGDDTTDENGFAVLGCNDVGIKVGAGDTCATVRLESIDRVGQFLSSLADARSAAQQ” the entry was “not soluble”.
Under “MKQWIAALLLMLIPGVQAAKPQKVTLMVDDVPVAQVLQALAEQEKLNLVVSPDVSGTVSLHLTDVPWKQALQTVVKSAGLITRQEGNILSVHSIAWQNDNIARQEAEQARAQANLPLENRSITLQYADAGELAKAGEKLLSAKGSMTVDKRTNRLLLRDNKTALSALEQWVAQMDLPVGQVELSAHIVTINEKSLRELGVKWTLADAQHAGGVGQVTTLGSDLSVATATTHVGFNIGRINGRLLDLELSALEQKQQLDIIASPRLLASHLQPASIKQESEIPYQVSSGESGATSVEFKEAVLGMEVTPTVLQKGRIRLKLHISQNVPGQVLQQADGEVLAIDKQEIETQVEVKSGETLALGGIFTRKNKSGQDSVPLLGDIPWFGQLFRHDGKEDERRELVVFITPRLVSSELEHHHHHH” stands “not soluble”; under “MSLKHHHNHHGEAGFKRKVDYLDRPERSEVLSPEDFLQAMPIGKTASILDLGAGTGFLTIPAAKLVDNTVFALDLDAKMLELIESKAKEAGLANVETLEASMDDIPLEANSVDVVLASLVLHEADSLADVLREVSRVVKTGGYFASLEFDTKGTDLKGPPMEIQISAEKLKEELAGFGFEVVKNWQLDEGMYVSIAVKKEGHHHHHH”, “soluble”.
“LDVAKSLDQGLVDRMLQSNTGTDSCPKRLPKGIDSVTLDKIRDLFVGEAALTADEAGEKIGASRTTARRYLEYLISSGELEADLNYGTVGRPERCYKKVIR”: the “soluble on expression in E. coli” value is reported as “not soluble”.
For the sequence “MGSDKIHHHHHHMGQGTDSMSKRGRVYIIGAGPGDPGLMTVKGTKCLAEADVVIYDHLINPGILHHARETARLVYAGKEGGKHTLSQEEINARLVSEAQQGHVVARLKGGDPFIFGRGGEEAEVLAREGIPFEIVPGVTSAIAVASYAGIPLTHRRHTATLAFVTGHEDPLKGQSEIDWKALAGIGTLVFLMGVRNLSRIAAGLIAQGKKPETPAALIRWGTTANQETLVGTLENIADLAEAAGFAPPAILVVGGVVGLRKELNWFETRPLFGKGIVITRPESQAESLAALLEDAGARVISFPTIQIVAPESWEGLDSAIRRLEDYAWLIFTSANGVRFFLERLYVTGKDVRDLKGIRLCTIGPATAAALENRGLRVDLVPETYLSEGVVAAFERVAISGQRILLPRAEKARDVIPEGLTRQGAVVDVVSAYRTVNSGRDRSELVELIAQRRVDVLTFTSPSTVTNFLEIMGPDFLPLPAGIRVACIGPVTAAAAEKAGLPVDILQEIYTIPGLVESLKVFLAKDKPH”, the “soluble on expression in E. coli” value is “not soluble”.
